According to the supplement of paper PMC9112550, “Optimization of the antimicrobial peptide Bac7 by deep mutational scanning” (BMC Biology, 2022):

system: Escherichia coli TOP10; assay: shrunken log2 fold change of peptide-encoding DNA abundance (4.5 h post-induction vs induction); higher = less antimicrobial activity (less host growth inhibition); conditions: time post-induction: 4.5 h; library: site-saturation at positions 5, 18, 19, 20
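Also: peptides expressed intracellularly from a pBAD plasmid library in pooled LB shake-flask culture, induced with 0.3% L-arabinose, DNA abundance read by NGS, three biological replicates, DESeq2 with apeglm shrinkage.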

Sequence | shrunken log2 fold change
RRIRGRPPRLPRPRPRPRYNPRP | -0.0667
RRIRGRPPRLPRPRPRPSACPRP | 1.5
RRIRGRPPRLPRPRPRPSALPRP | 1.38
RRIRGRPPRLPRPRPRPSCAPRP | 1.08
RRIRGRPPRLPRPRPRPSCRPRP | 0.417
RRIRGRPPRLPRPRPRPSFEPRP | 0.647
RRIRGRPPRLPRPRPRPSHIPRP | 0.0558
RRIRGRPPRLPRPRPRPSIIPRP | 0.211
RRIRGRPPRLPRPRPRPSKIPRP | 0.149
RRIRGRPPRLPRPRPRPSLPPRP | 0.178
RRIRGRPPRLPRPRPRPSMSPRP | 0.453
RRIRGRPPRLPRPRPRPSNSPRP | -0.203
RRIRGRPPRLPRPRPRPSRTPRP | 0.536
RRIRGRPPRLPRPRPRPSSFPRP | 0.406
RRIRGRPPRLPRPRPRPSSLPRP | -0.252
RRIRGRPPRLPRPRPRPSSTPRP | 0.446
RRIRGRPPRLPRPRPRPSTCPRP | 0.18
RRIRGRPPRLPRPRPRPSTEPRP | 1.14
RRIRGRPPRLPRPRPRPSTQPRP | 0.82
RRIRGRPPRLPRPRPRPSVFPRP | 0.465
RRIRGRPPRLPRPRPRPSWDPRP | 0.496
RRIRGRPPRLPRPRPRPSYIPRP | -0.458
RRIRGRPPRLPRPRPRPSYKPRP | -0.197
RRIRGRPPRLPRPRPRPTAAPRP | 1.97
RRIRGRPPRLPRPRPRPTAGPRP | 1.15

Sequence | shrunken log2 fold change
RRIRGRPPRLPRPRPRPTAHPRP | 1.12
RRIRGRPPRLPRPRPRPTCDPRP | 0.432
RRIRGRPPRLPRPRPRPTCGPRP | 0.915
RRIRGRPPRLPRPRPRPTDTPRP | 0.656
RRIRGRPPRLPRPRPRPTEHPRP | 0.569
RRIRGRPPRLPRPRPRPTEKPRP | 0.455
RRIRGRPPRLPRPRPRPTFFPRP | 0.412
RRIRGRPPRLPRPRPRPTHDPRP | 1.72
RRIRGRPPRLPRPRPRPTHRPRP | 0.454
RRIRGRPPRLPRPRPRPTKFPRP | 0.458
RRIRGRPPRLPRPRPRPTLAPRP | 1.27
RRIRGRPPRLPRPRPRPTLPPRP | 0.574
RRIRGRPPRLPRPRPRPTLVPRP | 1.87
RRIRGRPPRLPRPRPRPTPEPRP | 0.917
RRIRGRPPRLPRPRPRPTQPPRP | 1.12
RRIRGRPPRLPRPRPRPTRLPRP | 0.939
RRIRGRPPRLPRPRPRPTSEPRP | 0.339
RRIRGRPPRLPRPRPRPTTAPRP | 1.31
RRIRGRPPRLPRPRPRPTVTPRP | 1.34
RRIRGRPPRLPRPRPRPVASPRP | 0.623
RRIRGRPPRLPRPRPRPVCNPRP | 0.636
RRIRGRPPRLPRPRPRPVCVPRP | 0.891
RRIRGRPPRLPRPRPRPVECPRP | 0.289
RRIRGRPPRLPRPRPRPVGMPRP | 0.907
RRIRGRPPRLPRPRPRPVGSPRP | 0.749

Sequence | shrunken log2 fold change
RRIRGRPPRLPRPRPRPVHCPRP | 0.0385
RRIRGRPPRLPRPRPRPVICPRP | 0.252
RRIRGRPPRLPRPRPRPVIGPRP | 0.388
RRIRGRPPRLPRPRPRPVIMPRP | 0.258
RRIRGRPPRLPRPRPRPVKEPRP | 0.604
RRIRGRPPRLPRPRPRPVMRPRP | 0.749
RRIRGRPPRLPRPRPRPVNLPRP | -0.152
RRIRGRPPRLPRPRPRPVPVPRP | 0.629
RRIRGRPPRLPRPRPRPVQEPRP | 0.873
RRIRGRPPRLPRPRPRPVQMPRP | 0.844
RRIRGRPPRLPRPRPRPVRCPRP | 0.814
RRIRGRPPRLPRPRPRPVREPRP | 1.11
RRIRGRPPRLPRPRPRPVSHPRP | 0.389
RRIRGRPPRLPRPRPRPVSIPRP | 0.00516
RRIRGRPPRLPRPRPRPVVTPRP | -0.216
RRIRGRPPRLPRPRPRPVVVPRP | 0.985
RRIRGRPPRLPRPRPRPVVWPRP | 1.26
RRIRGRPPRLPRPRPRPVWDPRP | 0.593
RRIRGRPPRLPRPRPRPVWEPRP | 0.761
RRIRGRPPRLPRPRPRPVWVPRP | 0.509
RRIRGRPPRLPRPRPRPWAAPRP | 0.539
RRIRGRPPRLPRPRPRPWCYPRP | 0.0576
RRIRGRPPRLPRPRPRPWDFPRP | 0.328
RRIRGRPPRLPRPRPRPWFGPRP | -0.05
RRIRGRPPRLPRPRPRPWFNPRP | -0.18

Sequence | shrunken log2 fold change
RRIRGRPPRLPRPRPRPWFPPRP | -0.132
RRIRGRPPRLPRPRPRPWFVPRP | -0.314
RRIRGRPPRLPRPRPRPWGGPRP | 0.808
RRIRGRPPRLPRPRPRPWGSPRP | 0.268
RRIRGRPPRLPRPRPRPWHYPRP | 0.0232
RRIRGRPPRLPRPRPRPWLFPRP | 0.458
RRIRGRPPRLPRPRPRPWLIPRP | -0.192
RRIRGRPPRLPRPRPRPWLMPRP | 0.428
RRIRGRPPRLPRPRPRPWMPPRP | 0.105
RRIRGRPPRLPRPRPRPWPDPRP | 0.194
RRIRGRPPRLPRPRPRPWRLPRP | -0.0196
RRIRGRPPRLPRPRPRPWSAPRP | 0.232
RRIRGRPPRLPRPRPRPWSGPRP | 0.0316
RRIRGRPPRLPRPRPRPWWAPRP | 0.193
RRIRGRPPRLPRPRPRPWWCPRP | 0.127
RRIRGRPPRLPRPRPRPWWDPRP | -0.145
RRIRGRPPRLPRPRPRPWWGPRP | -0.0457
RRIRGRPPRLPRPRPRPWYRPRP | -0.19
RRIRGRPPRLPRPRPRPWYSPRP | -0.471
RRIRGRPPRLPRPRPRPYAVPRP | 2.53
RRIRGRPPRLPRPRPRPYCKPRP | 0.0688
RRIRGRPPRLPRPRPRPYCLPRP | -0.305
RRIRGRPPRLPRPRPRPYCNPRP | -0.411
RRIRGRPPRLPRPRPRPYDQPRP | 0.0878
RRIRGRPPRLPRPRPRPYDVPRP | -0.00115

Sequence | shrunken log2 fold change
RRIRGRPPRLPRPRPRPYEIPRP | -0.132
RRIRGRPPRLPRPRPRPYFLPRP | -0.345
RRIRGRPPRLPRPRPRPYFMPRP | -0.389
RRIRGRPPRLPRPRPRPYHMPRP | -0.345
RRIRGRPPRLPRPRPRPYIAPRP | -0.391
RRIRGRPPRLPRPRPRPYITPRP | -0.302
RRIRGRPPRLPRPRPRPYLEPRP | 0.296
RRIRGRPPRLPRPRPRPYMCPRP | 0.0864
RRIRGRPPRLPRPRPRPYPAPRP | 0.497
RRIRGRPPRLPRPRPRPYPVPRP | 0.0121
RRIRGRPPRLPRPRPRPYRWPRP | 0.191
RRIRGRPPRLPRPRPRPYSHPRP | -0.129
RRIRGRPPRLPRPRPRPYTHPRP | -0.426
RRIRGRPPRLPRPRPRPYVHPRP | -0.142
RRIRGRPPRLPRPRPRPYVVPRP | -0.0656
RRIRGRPPRLPRPRPRPYWHPRP | -0.627
RRIRGRPPRLPRPRPRPYYGPRP | -0.289
RRIRGRPPRLPRPRPRPYYSPRP | -0.207
RRIRHRPPRLPRPRPRPAASPRP | 0.144
RRIRHRPPRLPRPRPRPACLPRP | -0.221
RRIRHRPPRLPRPRPRPACNPRP | -0.155
RRIRHRPPRLPRPRPRPACVPRP | 0.0678
RRIRHRPPRLPRPRPRPADAPRP | -0.0349
RRIRHRPPRLPRPRPRPADCPRP | -0.395
RRIRHRPPRLPRPRPRPAFAPRP | 0.278

Sequence | shrunken log2 fold change
RRIRHRPPRLPRPRPRPAFIPRP | -0.037
RRIRHRPPRLPRPRPRPAGIPRP | -0.282
RRIRHRPPRLPRPRPRPAGPPRP | 0.056
RRIRHRPPRLPRPRPRPAHGPRP | 0.0855
RRIRHRPPRLPRPRPRPAHIPRP | -0.0784
RRIRHRPPRLPRPRPRPAHVPRP | 0.128
RRIRHRPPRLPRPRPRPAISPRP | -0.121
RRIRHRPPRLPRPRPRPAKCPRP | -0.0799
RRIRHRPPRLPRPRPRPAKEPRP | 0.0203
RRIRHRPPRLPRPRPRPAKLPRP | -0.352
RRIRHRPPRLPRPRPRPAKNPRP | -0.207
RRIRHRPPRLPRPRPRPAKPPRP | 0.533
RRIRHRPPRLPRPRPRPALHPRP | 0.111
RRIRHRPPRLPRPRPRPALKPRP | -0.322
RRIRHRPPRLPRPRPRPALWPRP | 0.701
RRIRHRPPRLPRPRPRPALYPRP | -0.033
RRIRHRPPRLPRPRPRPAMCPRP | -0.148
RRIRHRPPRLPRPRPRPAMGPRP | -0.336
RRIRHRPPRLPRPRPRPARLPRP | 0.568
RRIRHRPPRLPRPRPRPARMPRP | -0.0768
RRIRHRPPRLPRPRPRPAVGPRP | 0.11
RRIRHRPPRLPRPRPRPAVNPRP | -0.0508
RRIRHRPPRLPRPRPRPAVSPRP | -0.378
RRIRHRPPRLPRPRPRPAWEPRP | 0.421
RRIRHRPPRLPRPRPRPAYTPRP | -0.482
